Reference: patent publication US20250179183A1
Where two headings read alike, the source gives them in different places.

Tests used:
[1] = molecular target: cynomolgus monkey CD32a (cynomolgus monkey)
[2] = molecular target: cynomolgus monkey CD32b (cynomolgus monkey)
[3] = molecular target: cynomolgus monkey CD32a (cynomolgus monkey); remark: listed apart in the source

- Kd [1]: 3.13 µM
- Kd [2]: 1.46 µM
- Kd [3]: 5.94 µM
Substance: Rituximab (antibody)
